Assay results taken from the Immune Epitope Database (IEDB).

Legend:
HLA-A*24:02 = assay: IEDB peptide-MHC binding, purified MHC/competitive/fluorescence; ≥ and ≤ were set here for values at or beyond the usual limits of such assays
HLA-B*15:01 = assay: as above
HLA-A*02:01 [1] = assay: IEDB peptide-MHC binding, purified MHC/competitive/radioactivity; filed as Kd, often an IC50 or EC50 that approximates it; ≥ and ≤ were set here for values at or beyond the usual limits of such assays
HLA-A*02:17 = assay: as above
HLA-A*11:01 [2] = assay: IEDB peptide-MHC binding, purified MHC/competitive/fluorescence; ≥ and ≤ were set here for values at or beyond the usual limits of such assays
HLA-A*02:01 [3] = assay: as above
HLA-A*03:01 [4] = assay: IEDB peptide-MHC binding, purified MHC/direct/fluorescence; filed as Kd, often an IC50 or EC50 that approximates it; ≥ and ≤ were set here for values at or beyond the usual limits of such assays
HLA-A*11:01 [5] = assay: as above
HLA-A*31:01 [6] = assay: IEDB peptide-MHC binding, purified MHC/competitive/fluorescence; filed as Kd, often an IC50 or EC50 that approximates it; ≥ and ≤ were set here for values at or beyond the usual limits of such assays
HLA-A*02:01 [7] = assay: IEDB peptide-MHC binding, purified MHC/direct/fluorescence; filed as Kd, often an IC50 or EC50 that approximates it; ≥ and ≤ were set here for values at or beyond the usual limits of such assays; settings: source organism: Amur virus
HLA-A*02:11 = assay: as above; settings: source organism: Sapporo rat virus
HLA-A*02:12 = assay: as above; settings: source organism: Sapporo rat virus
HLA-A*02:19 = assay: as above; settings: source organism: Sapporo rat virus
HLA-A*69:01 = assay: as above; settings: source organism: Amur virus
HLA-A*02:03 = assay: IEDB peptide-MHC binding, purified MHC/competitive/radioactivity; filed as Kd, often an IC50 or EC50 that approximates it; ≥ and ≤ were set here for values at or beyond the usual limits of such assays
HLA-A*02:06 = assay: as above; settings: source organism: Dengue virus 2 Jamaica/1409/1983
HLA-B*08:01 = assay: as above
HLA-A*03:01 [8] = assay: as above; settings: source organism: Vaccinia virus WR
HLA-A*31:01 [9] = assay: as above; settings: source organism: Vaccinia virus WR
HLA-A*33:01 = assay: as above; settings: source organism: Vaccinia virus WR
HLA-A*68:01 = assay: as above; settings: source organism: Vaccinia virus WR
HLA-B*51:01 = assay: as above; settings: source organism: Dengue virus 2 Peru/IQT2913/1996
[10] = source organism: Vaccinia virus
[11] = source organism: Dengue virus 2 Jamaica/1409/1983
[12] = source organism: Zaire ebolavirus
[13] = source organism: Vaccinia virus WR
[14] = source organism: Escherichia coli O157:H7
[15] = source organism: Sudan ebolavirus
[16] = source organism: Dengue virus 3 China/80-2/1980
[17] = source organism: Influenza A virus (A/swine/Korea/S190/2004(H9N2))
[18] = source organism: Mammarenavirus lassaense
[19] = source organism: Campylobacter jejuni
[20] = source organism: Dengue virus 1 Singapore/S275/1990
[21] = source organism: Dengue virus 1 Brazil/97-11/1997
[22] = source organism: Dengue virus 4 Dominica/814669/1981
[23] = source organism: Dengue virus 2 Thailand/NGS-C/1944

KEFLRYLLF was tested, and the IC50 (HLA-A*24:02; [10]) was 0.381 µM and the IC50 (HLA-B*15:01; [10]) was ≥ 277 µM.
For VLVGVVTLYL, the Kd (HLA-A*02:01 [1]; [11]) was 62 nM and the Kd (HLA-A*02:17; [11]) was 1570 nM.
In the case of TLQVSDVDK, the IC50 (HLA-A*11:01 [2]; [12]) is reported as 41.9 µM.
With VGLITCKAF the IC50 (HLA-A*02:01 [3]; [13]) was ≥ 1310 µM, the IC50 (HLA-A*24:02; [13]) was 7.71 µM and the IC50 (HLA-B*15:01; [13]) was 57.3 µM.
With SVAPGTDFR the Kd (HLA-A*03:01 [4]; [14]) was 506 nM, the Kd (HLA-A*11:01 [5]; [14]) was 1.8 nM and the Kd (HLA-A*31:01 [6]; source organism: Escherichia coli O157:H7 str. EDL933) was 7 nM.
For SLTECPTFL, the Kd (HLA-A*02:01 [7]) was ≤ 1 nM, the Kd (HLA-A*02:11) was ≤ 1 nM and the Kd (HLA-A*02:12) was 5 nM. The Kd (HLA-A*02:19) was 41 nM and the Kd (HLA-A*69:01) was ≥ 20 µM.
In the case of SMPLGVVTN, the IC50 (HLA-A*02:01 [3]; [15]) is reported as ≥ 115 µM and the IC50 (HLA-A*11:01 [2]; [15]) is reported as ≥ 163 µM.
Sequence MMMLPATLA has a Kd (HLA-A*02:01 [1]; [16]) of 27.6 nM, a Kd (HLA-A*02:03; [16]) of 28.6 nM and a Kd (HLA-A*02:17; [16]) of 106 nM.
For LGLDDQEKK, the IC50 (HLA-A*11:01 [2]; [12]) was 30.7 µM.
For DIIIAVARK, the IC50 (HLA-A*11:01 [2]; source organism: Variola virus) was ≥ 177 µM and the IC50 (HLA-A*24:02; source organism: Variola virus) was 61.6 µM.
KCIKKGVEY was tested, and the IC50 (HLA-B*15:01; [10]) was ≥ 91.2 µM.
TTHSWIPKR gave a Kd (HLA-A*03:01 [4]; [17]) of 2830 nM, a Kd (HLA-A*11:01 [5]; [17]) of 132 nM and a Kd (HLA-A*31:01 [6]; source organism: Influenza A virus (A/Fort Monmouth/1/1947-mouse adapted(H1N1))) of 2.3 nM.
WLVHRQWFL showed a Kd (HLA-A*02:01 [1]; [11]) of 2.4 nM, a Kd (HLA-A*02:06) of 156 nM and a Kd (HLA-A*02:17; [11]) of 61.8 nM. The Kd (HLA-B*08:01; [11]) was 8.69 nM.
For KLIDIALSK, the Kd (HLA-A*03:01 [4]; [18]) was 639 nM, the Kd (HLA-A*11:01 [5]; [18]) was 1.2 nM and the Kd (HLA-A*31:01 [6]; source organism: Lassa virus Josiah) was 142 nM.
In the case of IMLEYPHFK, the Kd (HLA-A*03:01 [4]; [19]) is reported as 22.9 nM, the Kd (HLA-A*11:01 [5]; [19]) is reported as 1.8 nM and the Kd (HLA-A*31:01 [6]; source organism: Campylobacter jejuni subsp. jejuni NCTC 11168 = ATCC 700819) is reported as 13.6 nM.
LLMLLPTAL showed a Kd (HLA-A*02:01 [1]; [20]) of 7.54 nM, a Kd (HLA-A*02:03; [21]) of 31 nM and a Kd (HLA-A*02:17; [20]) of 11.6 nM. It also gave a Kd (HLA-B*08:01; [21]) of 6.42 nM.
For TLATGPILTL, the Kd (HLA-A*02:01 [1]; [22]) was 65.4 nM, the Kd (HLA-A*02:03; [22]) was 12.1 nM and the Kd (HLA-A*02:17; [22]) was 687 nM.
For GVVVSTNRL, the IC50 (HLA-A*02:01 [3]; [10]) was 9.53 µM and the IC50 (HLA-A*11:01 [2]; [10]) was ≥ 80 µM.
ETITEKTFK gave an IC50 (HLA-A*11:01 [2]; source organism: Vaccinia virus Copenhagen) of 5.57 µM, a Kd (HLA-A*03:01 [8]) of 3.06 µM and a Kd (HLA-A*31:01 [9]) of 823 nM. It also gave a Kd (HLA-A*33:01) of 2.6 nM and a Kd (HLA-A*68:01) of 12.1 nM.
Sequence FLFLMSGRGI has a Kd (HLA-A*02:01 [1]; [23]) of 4.21 nM, a Kd (HLA-A*02:03; source organism: Dengue virus 2 Peru/IQT2913/1996) of 6.33 nM and a Kd (HLA-A*02:17; [23]) of 726 nM. For the same sequence, the Kd (HLA-B*51:01) was 7.91 µM.
For RFNVPGTWR, the Kd (HLA-A*03:01 [4]; [14]) was 1920 nM, the Kd (HLA-A*11:01 [5]; [14]) was ≥ 20000 nM and the Kd (HLA-A*31:01 [6]; source organism: Escherichia coli K-12) was 1.27 nM.
